For one data set, the system named is rabbit embryos. The settings on record: in vitro and in vivo; cited from earlier work.
In another data set the test system is hESCs. The settings on record: synchronization at M phase prior to nucleofection; cited from earlier work.
For another data set, the system named is HEK293T cells. The settings on record: synchronization at M phase prior to nucleofection; cited from earlier work.
Another data set addresses T1, DNA ligase IV (Homo sapiens, UniProt P49917).
T1 sequence (P49917 1-911): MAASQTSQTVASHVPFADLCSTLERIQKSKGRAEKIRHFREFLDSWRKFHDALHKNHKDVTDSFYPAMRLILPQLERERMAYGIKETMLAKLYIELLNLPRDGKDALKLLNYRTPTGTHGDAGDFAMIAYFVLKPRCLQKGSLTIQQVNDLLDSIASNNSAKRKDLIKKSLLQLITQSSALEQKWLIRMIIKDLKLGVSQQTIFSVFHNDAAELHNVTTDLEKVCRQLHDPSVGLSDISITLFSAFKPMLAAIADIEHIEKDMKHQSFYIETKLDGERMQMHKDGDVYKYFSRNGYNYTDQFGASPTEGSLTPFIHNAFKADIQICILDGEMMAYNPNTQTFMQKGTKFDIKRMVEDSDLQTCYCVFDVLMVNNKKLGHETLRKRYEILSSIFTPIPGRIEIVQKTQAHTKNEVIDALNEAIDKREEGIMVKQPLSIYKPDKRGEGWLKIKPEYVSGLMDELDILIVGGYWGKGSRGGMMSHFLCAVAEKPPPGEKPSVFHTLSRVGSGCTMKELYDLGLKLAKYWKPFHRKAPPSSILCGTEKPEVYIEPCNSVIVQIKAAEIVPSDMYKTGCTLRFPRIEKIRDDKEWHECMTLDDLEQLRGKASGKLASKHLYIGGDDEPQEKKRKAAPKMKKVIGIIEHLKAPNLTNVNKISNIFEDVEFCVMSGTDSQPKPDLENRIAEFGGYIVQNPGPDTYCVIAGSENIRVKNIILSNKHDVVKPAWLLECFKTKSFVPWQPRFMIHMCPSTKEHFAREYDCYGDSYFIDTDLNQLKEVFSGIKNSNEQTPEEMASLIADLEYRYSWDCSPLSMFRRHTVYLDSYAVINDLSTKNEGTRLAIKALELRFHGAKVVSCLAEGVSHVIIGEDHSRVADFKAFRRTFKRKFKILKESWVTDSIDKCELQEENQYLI
The settings on record: cited from earlier work.

Data set [1] deals with eBFP locus in HEK293 cells expressing eBFP. As to the kind of experiment: EcoRI restriction digestion of PCR-amplified eBFP locus (FLAG tag/EcoRI insertion). It counts as cell-based. The settings on record: 48 hours. The source says:
(§1) FIG. 11. Insertion of a FLAG tag along with an EcoRI site using dsDNA donor with single-stranded overhangs. (A) Various donor DNA molecules containing a 30-base FLAG tag along with an EcoRI site were designed and synthesized, including single-stranded DNA donor (ssDNA), blunt-end dsDNA donor (blunt), dsDNA donor with 5′ overhang (5′), dsDNA donor with 3′ overhang (3′). The length of overhangs varied from 6 nucleotides (6), 15 nucleotides (15) to 30 nucleotides (30). The 3′ and 5′ ends of the oligonucleotides harbored two consecutive phosphorothioate-modified bases (Table 4). The short dsDNA donors with and without overhangs were prepared by annealing two short DNA oligonucleotides. […] At 48 hours post transfection, the eBFP locus was PCR-amplified. The resulting PCR fragments were analyzed by the genomic cleavage and detection assays to determine the percentage of Indel or subjected to restriction digestion with EcoRI to determine the percentage of digestion. (B) Length of 3′ overhang. […] Alternatively, a dsDNA donor with 30-base 3′ overhang but without phosphorothioate modification (30-3′n) was used. The percentage of digestion with EcoRI was determined at 48 hours post transfection. (C) Dose effect. […] The eBFP loci were PCR-amplified. The resulting PCR fragments were analyzed by EcoRI digest. (D) Sequencing verification. The PCR fragments were cloned into E. coli and 192 clones were randomly picked for sequencing. The relative percentage of wild type (wt), NHEJ, and HDR clones derived from either ssDNA donor (ssDNA) or dsDNA with 3′ overhangs (3′ overhang) was plotted. The white rectangles represented the population of clones that contained the insert but with a point mutation. Examples of edited clones were shown in (E) (not representing the actual percentages of NHEJ and HDR). The underlined sequences represented the FLAG tag along with an RI site. FIG. 11 discloses SEQ ID NOs: 15-24, respectively, from top to bottom.
To create homologous recombination (HR) assays, a series of gRNAs flanking the insertion site within the EmGFP gene were designed and synthesized (Table 4). Each individual gRNA was combined with GENEART™ […]™ Cas9 Nuclease to form the Cas9 protein/gRNA ribonucleoprotein complexes (Cas9 RNPs). The Cas9 RNPs were then used to transfect cells via NEON® electroporation. The genomic cleavage efficiency was then evaluated using the GENEART® Genomic Cleavage Detection kit at 48 hours post transfection. The gRNAs with highest editing efficiencies and also in close proximity to the insertion site were selected for the subsequent HR assays. For donor design of a single-stranded oligonucleotide, typically the mutation site was positioned at the center flanked by 30 to 50 nucleotides on each side. For asymmetric donor design, 30 nucleotides were placed on either the left or right arm and then 50 or 67 nucleotides on the right or left arm respectively, in both PAM and non-PAM strands. For design of a dsDNA oligonucleotide with single-stranded overhangs, the insertion element was overlapped in the center flanked by various lengths of ssDNA oligonucleotide on each side. By annealing two single-stranded oligonucleotides at 95° C. for 3 minutes, dsDNA donor molecules with either a 5′ protrusion or a 3′ protrusion were generated. To measure homologous recombination efficiency, the donor DNA was either co-transfected with Cas9 RNPs or delivered sequentially into cells via electroporation. At 48 hours post transfection, the gain of EmGFP function in reporter cell lines was determined by flow cytometric analysis with an Attune® NxT Acoustic Focusing Cytometer (Thermo Fisher Scientific). Alternatively, the genomic loci were PCR-amplified using the corresponding primers and then subjected to GENEART® Genomic Cleavage Detection assay or restriction digestion. The resulting PCR products were also subjected to TOPO cloning. Typically, 96 colonies were randomly picked for sequencing. […]

The test system is the same in data set [2]. The data set can be described thus: Genomic cleavage and detection assay at eBFP locus after Cas9 RNP and FLAG/EcoRI donor. It counts as cell-based. The settings on record: sequential delivery, 48 hours post transfection.
Source text: as §1
The genomic cleavage efficiency was measured by GENEART® Genomic Cleavage Detection kit according to manufacturer's instructions. The primer sequences for PCR amplification of each genomic locus are described in Table 4. Cells were analyzed at 48 to 72 hours post transfection. The cleavage efficiencies were calculated based on the relative agarose gel band intensity, which were quantified using an […]® gel documentation system running […]®, Version 3.4.0.0. ProteinSimple (San Jose, Calif., USA).
To extend this concept, we hypothesized that a dsDNA donor harboring single-stranded overhangs would facilitate HDR to higher levels than with blunt ends. To test this hypothesis, we designed and generated a series of donor molecules with either blunt end, 5′ end protrusion or 3′ end protrusion by annealing two small single-stranded oligonucleotides. A single-stranded DNA donor was used as a control. The 5′ and 3′ ends of oligonucleotides were protected with two consecutive phosphorothioate-modified bases (Table 3). For proof of concept, we inserted a 30 nucleotide FLAG epitope tag along with an EcoRI site into the BFP gene stably expressed in HEK293 cells. The gRNA was designed to target the top DNA strand. The length of single-stranded overhangs varied from 6 nucleotides to 30 nucleotides. The oligonucleotides were denatured and re-annealed prior to transfection forming the structures described in FIG. 11A. […] Co-delivery of Cas9 RNPs and donor DNA gave lower HDR efficiencies. At 48 hours post transfection, the genomic locus was PCR-amplified and the editing efficiencies were determined using a GCD assay. […] When the PCR fragments were subjected to restriction digestion with EcoRI to identify properly inserted constructs, only the donor DNA molecules containing 30-base single-stranded overhangs at the 3′ ends produced the expected digested fragments (30-3′ in FIG. 11, panel A). […]

The mark [3] stands for this setting: FIG. 11A, donor configurations, sequential delivery.

Oligonucleotides are written 5' to 3', each unit as a sugar letter and its base; * is a phosphorothioate linkage, no mark a phosphodiester; rarer units and linkages stand in square brackets, end groups in braces. Plain capitals give the bases only. d = 2'-deoxy (DNA)

In the case of `O=C(Nc1ccc(Br)cc1)c1ccc(Br)c(S(=O)(=O)NCc2ccccc2)c1` [RS-1], in the data set on rabbit embryos, the increased knock-in efficiency is 2-5 fold.

Consider `COC(=O)Nc1nc2ccc(C(=O)c3cccs3)cc2[nH]1` [nocodazole], for which the figures for the HDR with hESCs and in the data set with HEK293T cells were at most 1.6% and “up to 38%”, respectively.

Scr7: the “increase in HDR efficiency” value on DNA ligase IV is given as “up to 19 fold”.

B1: 15-3′: dsDNA donor with 15 nucleotide 3′ overhangs, annealed SEQ ID 83 and 84 (nucleic acid)
chain 1: dG*dA*dCdTdAdCdAdAdAdGdAdCdGdAdTdGdAdCdGdAdCdAdAdGdAdAdTdTdCdTdTdAdCdGdGdCdGdTdGdCdAdGdT*dG*dC
chain 2: dA*dA*dGdAdAdTdTdCdTdTdGdTdCdGdTdCdAdTdCdGdTdCdTdTdTdGdTdAdGdTdCdGdGdTdCdAdGdGdGdTdGdGdTdC*dA*dC
modifications: further chemistry not fully specified
As to B1, the “Avg (% digestion)” value in data set [1] (setting [3]) worked out at 0.50%; in data set [1] (FIG. 11B, length of 3′ overhang), 0.8%. Further, the “Avg (% Indels)” value in data set [2] is on record as 81.00%.

B2: 6-3′: dsDNA donor with 6 nucleotide 3′ overhangs, annealed SEQ ID 79 and 80 (nucleic acid)
chain 1: GACTACAAAGACGATGACGACAAGAATTCTTACGGCG
chain 2: AAGAATTCTTGTCGTCATCGTCTTTGTAGTCGGTCAG
modifications: chemistry not fully specified
In the case of B2, the “Avg (% digestion)” value in data set [1] (setting [3]) came to 0.00%. For the same molecule, the “Avg (% Indels)” value in data set [2] was determined as 78.50%.

B3: 30-5′: dsDNA donor with 30 nucleotide 5′ overhangs, annealed SEQ ID 85 and 86 (nucleic acid)
chain 1: dG*dT*dGdCdCdCdTdGdGdCdCdCdAdCdCdCdTdCdGdTdGdAdCdCdAdCdCdCdTdGdAdCdCdGdAdCdTdAdCdAdAdAdGdAdCdGdAdTdGdAdCdGdAdCdAdAdGdAdAdTdTdC*dT*dT
chain 2: dG*dT*dGdGdTdCdGdGdGdGdTdAdGdCdGdGdCdTdGdAdAdGdCdAdCdTdGdCdAdCdGdCdCdGdTdAdAdGdAdAdTdTdCdTdTdGdTdCdGdTdCdAdTdCdGdTdCdTdTdTdGdTdAdG*dT*dC
modifications: Two annealed DNA oligonucleotides with 5' overhangs, further chemistry not fully specified
On to B3, for which the “Avg (% digestion)” value in data set [1] (setting [3]) was determined as 1.00%. For the same molecule, in data set [2], the “Avg (% Indels)” value is 80.00%.

B4: 6-5′: dsDNA donor with 6 nucleotide 5′ overhangs, annealed SEQ ID 77 and 78 (nucleic acid)
chain 1: dC*dT*dGdAdCdCdGdAdCdTdAdCdAdAdAdGdAdCdGdAdTdGdAdCdGdAdCdAdAdGdAdAdTdTdC*dT*dT
chain 2: dC*dG*dCdCdGdTdAdAdGdAdAdTdTdCdTdTdGdTdCdGdTdCdAdTdCdGdTdCdTdTdTdGdTdAdG*dT*dC
modifications: Two annealed DNA oligonucleotides with 5' overhangs, further chemistry not fully specified
In the case of B4, in data set [1] (setting [3]), the “Avg (% digestion)” value came out at 0.00%. The “Avg (% Indels)” value in data set [2] turned out to be 56.50%.

B5: blunt: blunt-end dsDNA donor, FLAG tag plus EcoRI site, annealed SEQ ID 75 and 76 (nucleic acid)
chain 1: dG*dA*dCdTdAdCdAdAdAdGdAdCdGdAdTdGdAdCdGdAdCdAdAdGdAdAdTdTdC*dT*dT
chain 2: dA*dA*dGdAdAdTdTdCdTdTdGdTdCdGdTdCdAdTdCdGdTdCdTdTdTdGdTdAdG*dT*dC
modifications: annealed double-stranded DNA donor, further chemistry not fully specified
Consider B5, for which the “Avg (% digestion)” value in data set [1] (setting [3]) amounted to 0.00%. The “Avg (% Indels)” value in data set [2] is 68.50%.

B6: 15-5′: dsDNA donor with 15 nucleotide 5′ overhangs, annealed SEQ ID 81 and 82 (nucleic acid)
chain 1: dG*dT*dGdAdCdCdAdCdCdCdTdGdAdCdCdGdAdCdTdAdCdAdAdAdGdAdCdGdAdTdGdAdCdGdAdCdAdAdGdAdAdTdTdC*dT*dT
chain 2: dG*dC*dAdCdTdGdCdAdCdGdCdCdGdTdAdAdGdAdAdTdTdCdTdTdGdTdCdGdTdCdAdTdCdGdTdCdTdTdTdGdTdAdG*dT*dC
modifications: Two annealed DNA oligonucleotides with 5' overhangs, further chemistry not fully specified
Turning to B6, the “Avg (% digestion)” value in data set [1] (setting [3]) is 0.00%. In addition, the “Avg (% Indels)” value in data set [2] was 69.50%.
